Measurements taken from patent US20220048967A1 (published 2022).
Numbered stars: 1 amine (or outer) side, 2 acyl side, 3 side chain; on linkers, the order of the positions; unused ones are H or OH. Square brackets hold non-standard residues; d marks the D form. Side chains are listed from the residue outwards. Ends that are not written are not given here. * marks the point of attachment. C20 diacid = O=C(O)CCCCCCCCCCCCCCCCCCC(=O)*; αMePhe(2-F) = C[C@](N)(Cc1ccccc1F)C(=O)O; γGlu = O=C(O)[C@H](CCC(=O)[*:2])N[*:1]; αMeF = C[C@](N)(Cc1ccccc1)C(=O)O; AEEA = NCCOCCOCC(=O)O; Aib = CC(C)(N)C(=O)O

T1: human gastric inhibitory peptide receptor (GIPR) (human, UniProt P48546 22-466)
T1 sequence (looked up): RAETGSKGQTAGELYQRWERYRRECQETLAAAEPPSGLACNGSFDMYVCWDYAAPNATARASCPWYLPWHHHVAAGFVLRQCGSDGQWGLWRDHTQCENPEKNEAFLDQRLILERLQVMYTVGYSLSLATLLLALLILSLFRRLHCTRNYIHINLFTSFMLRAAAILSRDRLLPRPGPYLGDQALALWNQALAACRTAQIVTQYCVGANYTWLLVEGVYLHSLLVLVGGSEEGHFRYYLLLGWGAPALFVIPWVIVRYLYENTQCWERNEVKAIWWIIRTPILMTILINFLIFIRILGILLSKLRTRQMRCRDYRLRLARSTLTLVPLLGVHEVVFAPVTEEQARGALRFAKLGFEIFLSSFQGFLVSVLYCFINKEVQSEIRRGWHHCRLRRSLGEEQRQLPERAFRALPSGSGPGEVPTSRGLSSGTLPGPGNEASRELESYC


Columns and labels:
[1] = molecular target: T1, human gastric inhibitory peptide …; experiment: cell-based or functional assay
[2] = molecular target: human GLP-1 receptor (GLP-1R) (human, UniProt P43220 24-463); experiment: cell-based or functional assay

Row | Binder | hGIPR cAMP EC50 ratio [1] | hGIPR cAMP Rel EC50 [1] [nM] | hGLP1R cAMP EC50 ratio [2] | hGLP1R cAMP Rel EC50 [2] [nM]
1 | YXEGTXTSDHSIXLDXKAQXTFIXYLIEGGPSSGAPPPS (Y-Aib-EGT-αMeF(2F)-TSDHSI-αMeF-LD-Orn-K((2-[2-(2-Amino-ethoxy)-ethoxy]-acetyl)2-(γ-Glu)-CO-(CH2)18-CO2H)AQ-Aib-TFI-(D-Glu)-YLIEGGPSSGAPPPS-NH2) [Example 171] | 0.471 | 0.223 | 0.0609 | 0.75
2 | YXEGTXTSDHSIXLDXKAQXTFIXYLIEGGPSSGAPPPS (Y-Aib-EGT-αMeF(2F)-TSDHSI-αMeF-LD-Dap-K((2-[2-(2-Amino-ethoxy)-ethoxy]-acetyl)2-(γ-Glu)-CO-(CH2)18-CO2H)AQ-Aib-TFI-(D-Glu)-YLIEGGPSSGAPPPS-NH2) [Example 173] | 0.179 | 0.586 | 0.0373 | 1.23
3 | YXEGTXTSDHSIXLDEKAQXTFIXYLIEGGPSSGAPPPS (Y-Aib-EGT-αMeF(2F)-TSDHSI-αMeF-LDEK((2-[2-(2-Amino-ethoxy)-ethoxy]-acetyl)2-(γ-Glu)-CO-(CH2)18-CO2H)AQ-Aib-TFI-(D-Glu)-YLIEGGPSSGAPPPS-NH2) [Example 168] | 0.313 | 0.572 | 0.0323 | 1.8
4 | YXEGTXTSDHSIXLDXKAQXTFIXYLIEGGPSSGAPPPS (Y-Aib-EGT-αMeF(2F)-TSDHSI-αMeF-LD-Dab-K((2-[2-(2-Amino-ethoxy)-ethoxy]-acetyl)2-(γ-Glu)-CO-(CH2)18-CO2H)AQ-Aib-TFI-(D-Glu)-YLIEGGPSSGAPPPS-NH2) [Example 172] | 0.1 | 1.05 | 0.038 | 1.2
5 | Y[Aib]EGT[αMePhe(2-F)]TSDHSI[αMeF]LDEK([AEEA-AEEA-γGlu-C20 diacid])AQ[Aib]TFI[dE][αMeF]LI[dE]GGPSSGAPPPS-NH2 (N-terminus assumed; SMILES CC[C@H](C)[C@H](NC(=O)[C@H](CC(C)C)NC(=O)[C@](C)(Cc1ccccc1)NC(=O)[C@@H](CCC(=O)O)NC(=O)[C@@H](NC(=O)[C@H](Cc1ccccc1)NC(=O)[C@@H](NC(=O)C(C)(C)NC(=O)[C@H](CCC(N)=O)NC(=O)[C@H](C)NC(=O)[C@H](CCCCNC(=O)COCCOCCNC(=O)COCCOCCNC(=O)CC[C@H](NC(=O)CCCCCCCCCCCCCCCCCCC(=O)O)C(=O)O)NC(=O)[C@H](CCC(=O)O)NC(=O)[C@H](CC(=O)O)NC(=O)[C@H](CC(C)C)NC(=O)[C@](C)(Cc1ccccc1)NC(=O)[C@@H](NC(=O)[C@H](CO)NC(=O)[C@H](Cc1c[nH]cn1)NC(=O)[C@H](CC(=O)O)NC(=O)[C@H](CO)NC(=O)[C@@H](NC(=O)[C@](C)(Cc1ccccc1F)NC(=O)[C@@H](NC(=O)CNC(=O)[C@H](CCC(=O)O)NC(=O)C(C)(C)NC(=O)[C@@H](N)Cc1ccc(O)cc1)[C@@H](C)O)[C@@H](C)O)[C@@H](C)CC)[C@@H](C)O)[C@@H](C)CC)C(=O)N[C@H](CCC(=O)O)C(=O)NCC(=O)NCC(=O)N1CCC[C@H]1C(=O)N[C@@H](CO)C(=O)N[C@@H](CO)C(=O)NCC(=O)N[C@@H](C)C(=O)N1CCC[C@H]1C(=O)N1CCC[C@H]1C(=O)N1CCC[C@H]1C(=O)N[C@@H](CO)C(N)=O) [Example 165] | 0.172 | 1.04 | 0.01 | 5.81
6 | Y[Aib]EGT[αMePhe(2-F)]TSDHSI[αMeF]LDEK([AEEA-AEEA-γGlu-C20 diacid])AQ[Aib]TFI[dE]YLIEGG-NH2 (N-terminus assumed; SMILES CC[C@H](C)[C@H](NC(=O)[C@H](CC(C)C)NC(=O)[C@H](Cc1ccc(O)cc1)NC(=O)[C@@H](CCC(=O)O)NC(=O)[C@@H](NC(=O)[C@H](Cc1ccccc1)NC(=O)[C@@H](NC(=O)C(C)(C)NC(=O)[C@H](CCC(N)=O)NC(=O)[C@H](C)NC(=O)[C@H](CCCCNC(=O)COCCOCCNC(=O)COCCOCCNC(=O)CC[C@H](NC(=O)CCCCCCCCCCCCCCCCCCC(=O)O)C(=O)O)NC(=O)[C@H](CCC(=O)O)NC(=O)[C@H](CC(=O)O)NC(=O)[C@H](CC(C)C)NC(=O)[C@](C)(Cc1ccccc1)NC(=O)[C@@H](NC(=O)[C@H](CO)NC(=O)[C@H](Cc1c[nH]cn1)NC(=O)[C@H](CC(=O)O)NC(=O)[C@H](CO)NC(=O)[C@@H](NC(=O)[C@](C)(Cc1ccccc1F)NC(=O)[C@@H](NC(=O)CNC(=O)[C@H](CCC(=O)O)NC(=O)C(C)(C)NC(=O)[C@@H](N)Cc1ccc(O)cc1)[C@@H](C)O)[C@@H](C)O)[C@@H](C)CC)[C@@H](C)O)[C@@H](C)CC)C(=O)N[C@@H](CCC(=O)O)C(=O)NCC(=O)NCC(N)=O) [Example 166] | 0.504 | 0.355 | 0.0143 | 4.08
